Numbering of substitutions follows the chain as printed.
B1: FR2-13: anti-human FGFR2 rat monoclonal antibody obtained by the method described in Example 1; VH SEQ ID NO: 14, VL SEQ ID NO: 24 (antibody, listed as Rattus norvegicus, V domains shown)
VH: QVKLLQSGAELVKPGASVKLSCKTSGFTFSTSYMSWLKQVPGPSIEWIGWIYAGDGGTKYNQKFKGKATLTVDKSSSTAYMDLSSLTSEDAAVYFCATDGYGDWFAYWGQGTLVTVSS
VL: DIQMTQSPASLSASLGETVTIECRASEDIYSNLAWYQQKPGNSPQLLIYDANILADGVPSRFSGSGSGTQYSLKINSLQSEDVASYFCQQYNNYPPFTFGVGTKLELKRA
B2: FR2-14: anti-human FGFR2 rat monoclonal antibody obtained by the method described in Example 1; VH SEQ ID NO: 16, VL SEQ ID NO: 26 (antibody, listed as Rattus norvegicus, V domains shown)
VH: B1 VH with I45T, S75F, A106T
VL: B1 VL with V101A
B3: FR2-10: anti-human FGFR2 rat monoclonal antibody obtained by the method described in Example 1; VH SEQ ID NO: 12, VL SEQ ID NO: 21 (antibody, listed as Rattus norvegicus, V domains shown)
VH: EVQLVESGGGLVQPGRSLKLSCVASGFRFNDFWMTWIRQAPGKGLEWVASITYTGDNTYYAGSVKGRITISRDNAKSTLYLQMNSLRSEDTATYYCTRDDYGGYSPYYMDAWGQGTSVTVSS
VL: DIQMTQSPSSLSAFLGDRVTITCRASQDIGNYLRWFQQKPGKSPRLMIYGATNLANGVPSRFSGSRSGSDYSLTINNLESEDMAIYYCLKHNEYPFTFGSGTKLEIKRA

What follows are molecules tested against T1, human FGFR2 (Homo sapiens, UniProt P21802) (assay: Flow cytometry, selective binding to human FGFR expression vector-transfected HEK293T cells). Details: hybridoma culture supernatant, FGFR1 IIIc, FGFR2 IIIb, FGFR3 IIIb, FGFR4 transfectants.
T1 construct: expressed in transfected cells; host or cells: HEK293T cells
T1 sequence (P21802 22-822 isoform P21802-3): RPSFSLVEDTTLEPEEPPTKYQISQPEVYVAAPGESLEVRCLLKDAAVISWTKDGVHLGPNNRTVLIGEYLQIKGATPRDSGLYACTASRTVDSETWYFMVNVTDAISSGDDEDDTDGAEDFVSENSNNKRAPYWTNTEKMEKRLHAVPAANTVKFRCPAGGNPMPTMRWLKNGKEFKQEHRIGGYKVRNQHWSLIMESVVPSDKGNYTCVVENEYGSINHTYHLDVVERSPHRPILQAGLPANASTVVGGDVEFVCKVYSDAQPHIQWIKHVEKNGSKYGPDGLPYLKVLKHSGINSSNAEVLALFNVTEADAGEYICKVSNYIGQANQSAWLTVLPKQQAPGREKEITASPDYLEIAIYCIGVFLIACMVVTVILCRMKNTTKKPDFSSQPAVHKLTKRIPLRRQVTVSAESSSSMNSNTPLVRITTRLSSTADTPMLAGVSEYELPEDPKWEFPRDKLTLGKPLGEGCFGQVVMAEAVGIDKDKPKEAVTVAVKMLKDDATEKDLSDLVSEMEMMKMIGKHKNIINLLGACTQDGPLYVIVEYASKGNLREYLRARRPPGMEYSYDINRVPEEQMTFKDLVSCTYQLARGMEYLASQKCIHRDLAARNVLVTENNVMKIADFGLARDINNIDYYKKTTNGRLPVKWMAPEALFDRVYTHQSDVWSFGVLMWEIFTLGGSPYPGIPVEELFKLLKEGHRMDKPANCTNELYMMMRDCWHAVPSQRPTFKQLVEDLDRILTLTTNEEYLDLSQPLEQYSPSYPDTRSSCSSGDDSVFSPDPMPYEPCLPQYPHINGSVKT
Experimental: HEK293T cells were inoculated at a density of 5×10^4 cells/cm^2 to a 225-cm^2 flask (manufactured by Sumitomo Bakelite Co., Ltd.) and cultured overnight at 37° C. under 5% CO2 conditions in a DMEM medium containing 10% FBS. On the next day, the pcDNA-DEST40-FGFR2 IIIb IgD1-deletion mutant deficient in the N-terminal IgD1 domain or a control pcDNA-DEST40 was transfected to the HEK293T cells using Lipofectamine 2000, and the cells were further cultured overnight at 37° C. under 5% CO2 conditions. On the next day, the expression vector-transfected HEK293T cells were treated with TrypLE Express (manufactured by Life Technologies Corp.), washed with DMEM containing 10% FBS, and then suspended in PBS containing 5% FBS. The obtained cell suspension was used in flow cytometry analysis.
cDNAs encoding a human FGFR1 IIIc variant protein (isoform 1: NP_075598), a human FGFR3 IIIb variant protein (isoform 3: NP_001156685), a human FGFR3 IIIc variant protein (isoform 1: NP_000133), and a human FGFR4 protein (isoform 1: NP_002002) were cloned into pcDNA-DEST40 vectors to construct vectors pcDNA-DEST40-FGFR1 IIIc, pcDNA-DEST40-FGFR3 IIIb, pcDNA-DEST40-FGFR3 IIIc, and pcDNA-DEST40-FGFR4 for expression of each variant protein, respectively.
Each human FGFR expression vector constructed in Examples 1)-3-1 and 2)-1-1 was transfected to HEK293T cells by the method shown in Example 1)-5-1. The cell suspension was centrifuged to remove the supernatant. Then, these various human FGFR expression vector-transfected HEK293T cells and the pcDNA-DEST40-transfected HEK293T cells were separately suspended by the addition of the hybridoma culture supernatant containing the FR2-10, FR2-13, or FR2-14 antibody and left standing at 4° C. for 1 hour. […] The data was analyzed using Flowjo (manufactured by Tree Star Inc.). After removal of 7-aminoactinomycin D-positive dead cells by gating, the FITC fluorescence intensity of live cells was plotted to a histogram to calculate average fluorescence intensity (MFI).

Molecule | selective binding activity against human FGFR2
B1 | selectively bind to both human FGFR2 IIIb and FGFR2 IIIc
B2 | selectively bind to both human FGFR2 IIIb and FGFR2 IIIc
B3 | selectively bind to human FGFR2 IIIb

The molecules below were run against T2, human FGFR2 IIIb (Homo sapiens, UniProt P21802) (assay: Elk1 luciferase reporter gene assay, FGFR2 IIIb-expressing 293α cells, ligand FGF7). Details: antibody preincubated 1 hour; FGF7 10 ng/ml, 6 hours.
T2 construct: expressed in transfected cells; host or cells: 293α cells (HEK293 stably transfected with integrin αv and β3)
T2 sequence (P21802 22-822 isoform P21802-3 limits assumed): as the sequence (P21802 22-822 isoform P21802-3) above
Assay type: cell-based
Experimental: In order to evaluate the signal-neutralizing effect of the anti-FGFR2 antibody produced by each obtained hybridoma, an Elk1 luciferase reporter gene assay system for detecting ERK (extracellular signal-regulated kinase) activation induced by FGFR2 activation via ligand FGF7 stimulation was constructed by a method shown below and used in the evaluation of the obtained antibody for its effect.
The Elk1 luciferase reporter gene assay was carried out using each hybridoma culture supernatant selected in Example 1)-5. A cell line 293α, which was HEK293 cells stably transfected with integrin αv and integrin β3 expression vectors, was transiently cotransfected with pcDNA-DEST40-FGFR2 IIIb or pcDNA-DEST40, pFA2-Elk1 (manufactured by Stratagene Corp.), pFR-Luc2CP, and pGL4.74[hRluc/TK] (manufactured by Promega Corp.) according to transfection procedures using Lipofectamine 2000 (manufactured by Invitrogen Corp.), inoculated to a white 96-well cell culture plate (manufactured by Corning Inc.), and cultured overnight at 37° C. under 5% CO2 conditions. On the next day, the culture supernatant was removed, and the hybridoma culture supernatant diluted 5-fold with DMEM containing 5% FBS was added at a concentration of 50 μl/well to the plate. After culture at 37° C. for 1 hour under 5% CO2 conditions, a ligand human FGF7 (manufactured by R&D systems, Inc.) was added at a final concentration of 10 ng/ml to each well. After incubation for 6 hours, cell lysates were prepared and assayed for firefly luciferase activity (specific signal) and Renilla luciferase activity (signal for normalization) using Dual-luciferase reporter assay system (manufactured by Promega Corp.). The firefly/Renilla ratio was calculated to normalize data on each well.
In order to evaluate the signal-neutralizing effects of the obtained antibodies by the Elk1 luciferase reporter gene assay, 293α cells were cotransfected with pcDNA-DEST40-FGFR2 IIIb or pcDNA-DEST40-FGFR2 IIIc constructed in Example 1)-3-1, pFA2-Elk1 (manufactured by Stratagene Corp.), pFR-Luc2CP, and pGL4.74[hRluc/TK] (manufactured by Promega Corp.) by the method shown in Example 1)-6-2, and cultured overnight at 37° C. under 5% CO2 conditions. On the next day, the culture supernatant was removed, and the cells were then preincubated for 1 hour with the rat FR2-10, FR2-13, or FR2-14 antibody diluted with DMEM containing 2% FBS. Subsequently, a ligand human FGF7 (manufactured by R&D systems, Inc.) or human FGF9 (manufactured by PeproTech Inc.) was added at a final concentration of 10 ng/ml to each well. After incubation for 6 hours, firefly luciferase activity (specific signal) and Renilla luciferase activity (signal for normalization) were assayed using Dual-Glo Luciferase Assay System (manufactured by Promega Corp.). The firefly/Renilla ratio was calculated to normalize data on each well.
In order to evaluate the signal-neutralizing effects of the obtained antibodies by the Elk1 luciferase reporter gene assay, 293α cells were transfected with pcDNA-DEST40-FGFR2 IIIb or pcDNA-DEST40-FGFR2 IIIc constructed in Example 1)-3-1 by the method shown in Example 1)-6-2, and cultured overnight at 37° C. under 5% CO2 conditions. On the next day, the culture supernatant was removed, and the cells were then preincubated for 1 hour with the cFR2-10, cFR2-13, or cFR2-14 antibody (final concentration: 0.05 to 5 μg/ml) diluted with DMEM containing 2% FBS. Subsequently, a ligand human FGF7 (manufactured by R&D systems, Inc.) or human FGF9 (manufactured by PeproTech Inc.) was added at a final concentration of 10 ng/ml to each well. After incubation for 6 hours, cell lysates were prepared and assayed for firefly luciferase activity (specific signal) and Renilla luciferase activity (signal for normalization) using Dual-luciferase reporter assay system (manufactured by Promega Corp.). The firefly/Renilla ratio was calculated to normalize data on each well. […]

Molecule | ligand FGF7 dependent reporter activation in the FGFR2 IIIb-expressing cells
B1 | inhibited
B2 | inhibited
B3 | inhibited

Same assay, conditions: hybridoma culture supernatant diluted 5-fold; FGF7 10 ng/ml

Molecule | ligand FGF7 dependent reporter activation in FGFR2-expressing HEK293 reporter cells (screening)
B1 | reduced ligand FGF7 dependent reporter activation to a ligand-free level
B2 | reduced ligand FGF7 dependent reporter activation to a ligand-free level
B3 | reduced ligand FGF7 dependent reporter activation to a ligand-free level
